In patent US20230357429A1:
Residue numbers refer to the chain shown, from its start. In names and notes the source's numbering stands.

Columns and labels:
Settings in all cases: remark: other sources report otherwise
[1] = biological target: T1, Human TROP2 ECD (31-274 AA), biotinylated (human), P09758; test: ELISA, biotinylated TROP2 ECD on neutravidin plate, Fab titrated
T1 chain: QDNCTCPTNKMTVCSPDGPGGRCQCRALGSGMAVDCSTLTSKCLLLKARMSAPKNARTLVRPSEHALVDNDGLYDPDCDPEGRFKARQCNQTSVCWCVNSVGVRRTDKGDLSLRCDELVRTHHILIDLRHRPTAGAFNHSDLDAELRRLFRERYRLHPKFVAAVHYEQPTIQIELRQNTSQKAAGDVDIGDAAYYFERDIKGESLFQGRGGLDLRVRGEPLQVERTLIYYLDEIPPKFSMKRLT

[2] = biological target: T1, Human TROP2 ECD (31-274 AA), …; test: ELISA, biotinylated TROP2 ECD on neutravidin plate (BLI cell of the same column: low binding); ELISA: no half-maximal signal up to 1000 nM Fab
[3] = biological target: T1, Human TROP2 ECD (31-274 AA), …; test: ELISA: biotinylated TROP2 captured on neutravidin plate, Fab titrated, HRP secondary antibody

Measured: EC50

B1: TBD-4 (anti-TROP2 Fab, LC H91A) (Fab)
light: DIQLTQSPSSLSASVGDRVSITCKASQDVSIAVAWYQQKPGKAPKLLIYSASYRYTGVPDRFSGSGSGTDFTLTISSLQPEDFAVYYCQQAYITPLTFGAGTKVEIKRTVAAPSVFIFPPSDEQLKSGTASVVCLLNNFYPREAKVQWKVDNALQSGNSQESVTEQDSKDSTYSLSSTLTLSKADYEKHKVYACEVTHQGLSSPVTKSFNRGEC
heavy: QVQLQQSGSELKKPGASVKVSCKASGYTFTNYGMNWVKQAPGQGLKWMGWINTYTGEPTYTDDFKGRFAFSLDTSVSTAYLQISSLKADDTAVYFCARGGFGSSYWYFDVWGQGSLVTVSSASTKGPSVFPLAPSSKSTSGGTAALGCLVKDYFPEPVTVSWNSGALTSGVHTFPAVLQSSGLYSLSSVVTVPSSSLGTQTYICNVNHKPSNTKVDKKVEPKSC
modifications: here or on the partner: biotinylated (site not stated)
> 1000 nM: all assays above

B2: TBD-5 (anti-TROP2 Fab, LC Y92A) (Fab)
light: B1 light with A91H, Y92A
heavy: B1 heavy
modifications: here or on the partner: biotinylated (site not stated)
> 1000 nM: all assays above
